Data as given in US20250313650A1 (BIOLEGEND, published 2025).
Changes are numbered by the printed parent chain. Each block holds one binder with its values, some of them ahead of it.

Tests used:
[1] = molecular target: T1, CHI3L1 expressed in human cell lines (THP-1, U-87 MG) (human, UniProt P36222 22-383); test: flow cytometry, fixed/permeabilized CHI3L1-expressing THP-1 cells, 1 µg Alexa-647 antibody
T1 construct: Endogenous CHI3L1 of human cell lines; It was detected inside fixed and permeabilized cells, not on the cell surface; In the ERK assay it is the CHI3L1 made by live U-87 MG cells; also called chitinase 3 like protein 1; YKL-40
T1 sequence (P36222 22-383 limits assumed): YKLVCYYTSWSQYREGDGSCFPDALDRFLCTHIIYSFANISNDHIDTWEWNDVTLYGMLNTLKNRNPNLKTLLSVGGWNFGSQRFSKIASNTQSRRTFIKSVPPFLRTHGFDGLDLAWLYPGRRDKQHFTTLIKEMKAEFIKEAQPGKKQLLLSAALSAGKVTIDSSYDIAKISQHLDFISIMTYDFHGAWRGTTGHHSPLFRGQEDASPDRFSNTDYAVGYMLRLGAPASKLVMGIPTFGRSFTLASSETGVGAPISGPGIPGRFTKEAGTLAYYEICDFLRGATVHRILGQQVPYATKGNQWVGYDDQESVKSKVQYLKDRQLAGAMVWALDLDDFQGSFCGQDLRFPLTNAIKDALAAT
Description: In a first experiment, certain anti-CHI31L1 antibodies were assessed using CHI31L1 expressing human […] cell line THP-1. THP-1 cells were grown in RPMI media supplemented with 10% FBS in T75 culture flask. Cells were fixed in Fixation Buffer and permeabilized using Intracellular Perm Wash Buffer. 1 μg anti-CHI31L1 antibodies (conjugated to Alexa-647) were added and allowed to incubate for 15 minutes. Cells were then washed twice with Intracellular Perm Wash Buffer and analyzed on a BD LSRII flow cytometer.

recombinant CHI3L2 = molecular target: T2, recombinant CHI3L2 (UniProt Q15782 27-390, limits assumed); test: flow cytometry blocking assay on fixed/permeabilized THP-1 cells; antibody pre-incubated with recombinant protein
T2 sequence (looked up): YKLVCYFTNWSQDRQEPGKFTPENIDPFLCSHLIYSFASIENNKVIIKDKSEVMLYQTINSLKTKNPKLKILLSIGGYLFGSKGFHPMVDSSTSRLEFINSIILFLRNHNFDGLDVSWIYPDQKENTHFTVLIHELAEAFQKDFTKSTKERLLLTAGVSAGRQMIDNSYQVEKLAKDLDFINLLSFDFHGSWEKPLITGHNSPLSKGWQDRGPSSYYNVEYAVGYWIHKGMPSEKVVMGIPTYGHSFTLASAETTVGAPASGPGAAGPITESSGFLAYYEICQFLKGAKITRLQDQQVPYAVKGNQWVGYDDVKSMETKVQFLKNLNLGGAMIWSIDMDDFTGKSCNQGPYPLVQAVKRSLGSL
Description: (§1) To assess for specificity for CHI3L1 and cross-reactivity with the closely related protein CHI3L2, certain anti-CHI3L1 antibody clones were assessed using CHI3L1 expressing human […] cell line THP-1. THP-1 cells were grown in RPMI media supplemented with 10% FBS in T75 culture flask. Cells were fixed in Fixation Buffer and permeabilized using Intracellular Perm Wash Buffer. 1 μg anti-CHI3L1 antibodies (conjugated to Alexa-647) were incubated with 5 μg recombinant CHI3L1 or recombinant CHI3L2 for 15 minutes and then added to cells. After 15 minutes incubation, cells were then washed twice with Intracellular Perm Wash Buffer and analyzed on a BD LSRII flow cytometer.

recombinant human CHI3L1 [2] = molecular target: T3, recombinant human CHI3L1 (human, UniProt P36222 22-383); test: flow cytometry blocking assay on THP-1 cells (FIG. 5A legend)
T3 construct: also called recombinant CHI3L1; CHI3L1 protein
T3 sequence (P36222 22-383 limits assumed): as the sequence (P36222 22-383 limits assumed) above
Description: as §1

[3] = molecular target: T4, CHI3L2 expressed in human T cell leukemia cell line Jurkat (human, UniProt Q15782 27-390); test: flow cytometry on fixed/permeabilized CHI3L2-expressing Jurkat cells, Alexa-647 antibody
T4 construct: whole, on cells; Endogenous protein, detected by intracellular staining
T4 sequence (looked up): T2 sequence (looked up)
Description: To asses for cross-reactivity with the closely related protein CHI3L2, certain anti-CHI3L1 antibody clones were assessed using CHI3L2 expressing human T cell leukemia cell line Jurkat. Jurkat cells were grown in RPMI media supplemented with 10% FBS in T75 culture flask. Cells were fixed in Fixation Buffer and permeabilized using Intracellular Perm Wash Buffer. 1 μg anti-CHI3L1 antibodies (conjugated to Alexa-647) were added and allowed to incubate for 15 minutes. Cells were then washed twice with Intracellular Perm Wash Buffer and analyzed on a BD LSRII flow cytometer.

recombinant human CHI3L1 [4] = molecular target: T3, recombinant human CHI3L1; test: flow cytometry blocking assay: 1 µg antibody pre-incubated with 5 µg recombinant CHI3L1, then added to THP-1 cells
Description: as §1

recombinant human CHI3L1 [5] = molecular target: T3, recombinant human CHI3L1; test: bead-based sandwich immunoassay; biotinylated Clone B is the detection antibody, SAV-PE read-out
Description: In this Example, Clone F was paired with Clone B in a bead-based sandwich immunoassay. The assay used Clone F as a capture antibody to capture the antigen (CHI3L1 protein) and then Clone B was used as a detection antibody. The Clone F capture antibody was conjugated on the beads and the Clone B detection antibody was biotinylated. After incubation of the Clone F conjugated beads with CHI3L1 and then detection Clone B, on the beads surface, a sandwich including capture Clone F-CHI3L1-detection Clone B formed. The unbound CHI3L1 protein was then washed off and then streptavidin conjugated to phycoerythrin (SAV-PE) was added, which binds the biotin on the detection Clone B. The final complex including beads-Clone F capture antibody-CHI3L1-Clone B-SAV-PE was acquired onto a flow cytometer and the PE signal on the beads was measured.

binding result [1]: binds
binding result (recombinant CHI3L2): no binding
binding result (recombinant human CHI3L1 [2]): binds
binding result [3]: no binding (tested: 1 µg)
B1: Clone A (antibody, V domains shown)
VH: DVQLQESGPDLVKPSQSLSLTCTVTGYSITSGYSWHWIRQFPGNKLEWMGYIHYSGRTNYNPSLKSRISFTRDTSKNQFFLRLNSVTPEDTATYYCARNYGYDEFAYWGQGTLVTVSA
VL: QIVLTQSPAIMSASPGEKVTMTCSASSSVSYMHWYQQKSGTSPKRWIYDTSKLASGVPARFSGSGSGTSYSLTISSMEAEDAATYYCQQWSSNPPTFGSGTKLEIK
notes: Hybridoma monoclonal antibody; Conjugated to Alexa-647 for flow cytometry

binding result [1]: binds
B2: Clone E (antibody, V domains shown)
VH: B1 VH with R57T, F70I, R82Q, P88T, Y95S
VL: B1 VL
notes: as for B1

binding result (recombinant CHI3L2): no binding
binding result [3]: no binding (tested: 1 µg)
B3: anti-human CHI3L1 (Clone F) (antibody, V domains shown)
VH: QVQLQQSGPELVRPGVSVKISCKGSGYTFTDYAMHWVKQSHAKSLEWIGVISTYSGHTNYNQKFKGKATMTVDKSSSTAYMELARLTSEDSAIYYCARGVYYKPEFDYWGQGTTLTVSS
VL: DIQMTQSSSSFSVSLGDRVTITCKASEDIYNRLAWYQQKPGNAPRLLIFGATSLETGVPSRFSGSGSGKDYTLSITSLQTEDVATYYCQQYSSTPPTFGGGTKLEIK
notes: Hybridoma monoclonal antibody; a mouse IgG1 kappa isotype control was used alongside it

binding result [1]: binds
binding result (recombinant human CHI3L1 [4]): binds
binding result (recombinant CHI3L2): no binding
binding result [3]: no binding (tested: 1 µg)
B4: anti-human CHI3L1 (Clone H) (antibody, V domains shown)
VH: B3 VH with D31H, H57N
VL: B3 VL with Y30D, F49S, S92W
notes: as for B1

binding result (recombinant human CHI3L1 [5]): binds
B5: Clone B (antibody, V domains shown)
VH: EVKLLESGGGLVQPGGSLKLSCAASGCDFSRYWMSWVRQAPGKGLEWIGEINPDSSTINYTPSLKDKFIISRDNAKNTLYLQMSKVRSEDTALYYCARPEDHFAMDYWGQGTSVTVSS
VL: DIQMTQSPASQSASLGESVTITCLASQTIGTWLAWYQQKPGKSPQLLIYAATSLADGVPSRFSGSGSGTKFSFKISSLQAEDFVSYYCQQLYSTPWTFGGGTKLEIK
notes: Hybridoma monoclonal antibody
